The assay deals with Methanol dehydrogenase (MDH) of Bacillus brevis S1 strain (NCIMB 12524) (Bacillus brevis S1 strain (NCIMB 12524)). In words: cell-based or functional assay.

“Amd (Activator of methanol dehydrogenase), YqkG gene product of Bacillus subtilis 168 strain (from UniProt P54570 1-185)”: the NADH producing rate (increase of absorbance at 340 nm after methanol addition) in cell extract, against the pHY300PLK vector control was 5 times.
